The text below walks through data of publication PMC2783839.

The target of the data set is T1, NEUROG2 (cNEUROG2) (Gallus gallus (chick)?, UniProt Q9YH82 1-213).
T1 sequence: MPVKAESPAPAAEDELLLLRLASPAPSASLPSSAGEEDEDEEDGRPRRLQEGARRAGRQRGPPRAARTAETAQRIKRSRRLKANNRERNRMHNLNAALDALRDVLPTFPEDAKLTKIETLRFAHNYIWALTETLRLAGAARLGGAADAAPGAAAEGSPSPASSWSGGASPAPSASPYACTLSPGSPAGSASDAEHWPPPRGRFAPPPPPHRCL
Put plainly: EMSA. (In general: Mobility shift assays separate free from complexed probe on a gel.)

B1: (Ebox)3 (dsDNA)
DNA 1: GATCCAGGCAGGTGGCAGGCAGGTGGCAGGCAGGTGGCAGATC
DNA 2: GATCTGCCACCTGCCTGCCACCTGCCTGCCACCTGCCTGGATC
Turning to B1, the binding result is “no binding”.
